Experimental data reported in the domain aggregation screens of Martell et al. (2025).

Assay: soluble fraction after stress (log2 fold change); higher = more stays soluble; pooled small domains, quantitative proteomics
Settings: stress: pH 4
Procedure, shortened: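 How much of each domain stays soluble after acid stress, expressed as a fold change, is used to gauge aggregation propensity. Pooled custom libraries of small domains underwent pH 4 stress before high-throughput quantitative proteomics. A higher log2 value means more of the domain stayed soluble.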

Sequence | soluble fraction (log2)
HMQPSFFEMIRMVESYIKQHFENVGNEFPEIARAIYYGIEEERNIYGTASREDMEELLDEGIPILPVP | -0.937
HMDIGNKIKELRTEQKMTQSDLAERLGVTKSSISSYENGSRLPSYDILLKIARIFKVSTDILLG | -0.637
HMKQHPTIDLQIGQKLHYKEDVFEVTRFAKDKNGQDMVILKDPSIGSGIEIPWYRSKLEEIIESGQYKIT | -0.113
HMKLRSIQEQVQYLEKVDNQKAMQIILNMNDKASAVQILRNMKKEKAAAILAQMDPLQAAQILEDLA | -0.132
HMNAPKKPLSAYFLFSQEERLKVKAENPDYSITEVAKELGKRWATLNPDIKTVYEQRYQDARRIYETEMNT | -0.102
HMKTAAKVLGESGGKPVTVQSGRYGPYVQLGTIRATLPKDLDQEAVTLDKALELIDAKAERSGK | -0.0034
HMKPMNNNDILRRLRYTFDLSDDKMMETFALGGYEANRSEISDWLKKDDHPEQKSLYDKSLSHFLNGFIV | -0.085
HMVVPELNLAQQDVLRALRQRGRATADHLSVDTHRPVSEVMGILLGLEIAEVLYRVEGGWFVPKTAR | -1.04
HMTALISGNKAMQMLELSRHSFEKIVKDGLLSIVHEGDKKYYEIGEVEAFMGSDTYKELVNGV | -0.314
HMADNKDMQAAFMEALNGLKEYAKVNGNIVTKEDVNSYFKDMHLDDNKYSMITGYLMANGITIKG | -0.432
HMFDREKFIKLGQEFARVAFENVNKRATDRALKTAAKHYGLPSADELLARLGSSEIAARDVVAELYPNL | -0.28
HMSFEITGDELILRFVKDKGGATTEQIRKHWEASNRGGKSDNNLTNLVKSGKLLRSKDPNGPGSLYTAS | -0.749
HMAEEPLRIWTDLQGRSIEASFIKFSGNNIVIKMKSGRDYEVARSLFSPGDQKYLSDLKKSTPE | -0.0706
HMTEKIEWYKEVLDLEPNSKIFFPLAKMLEKEGELEEARRVLAEGVSRHEEFLEARLFYISVLSRL | -1.05
HMKANIGDQVFTQLKDQIINGEWRPGDRIPSEAQLIQLFGVSRGTVRQAVQKLAGEGLIVTRHGEGSFVQG | -0.0317
HMIDLGKSRTWHSENGRAIEARVINISEEQQTVEMQRVDGLKFELSWNQLSKADQTLLAEAAKKTALVA | 0.276
HMSLGSQEYSIGFRNGDSTYHYIDKALKELAYEGVIDELSTQWFGSSRAVDFPSQKDALSELGYIA | 0.22
HMSVLRLGNRGPDVRKLQLLLNSTLVPSPQLTVDGDFGKRTEQAVVTFQQMRGLPQDGIVGQRTWALLGQT | 0.241
HMFERINLIGVNGTTKKRSALVRLLDGEIVKIGVGDSLNGGQVVDISPATLTYLKSGKSIMLTLPK | 0.22
HMEVPQVETEKVEAKLKEAEVLLVKVTDSSLKANATETLAGLRNNLTLQTMDNNGIMAEAEKLLALLRES | -0.315
HMDIIIEEGIDESLSTDDAILDLLGRASDAFSNAQKALLEGDLGSYQKLIEQAERLVKKATELLGENN | -1.1
HMSSKSLAALSPQEYRLLPLVAEGKTNKEIASALALSDKTVKNYLANIFSKLGITRRTQAATLYARAL | 0.252
HMFSNATISGLKAGALVRVYNISGVAVSTLTADAEGKVSVDLNNLPKGVYILSTPSKSFKVLN | 0.176
HMKTRQVTVRNGRIEIFDKRFSTERLVFTAANLPVLEREGEVFTAGIPDSRDFINLWARDGSFAGSVPRV | -1.51
HMTSMYYLNKAVKEGNAKAIRQLLSAGININVRKRETSTPLDFAIKYKQTEIADLLRKHGGKTAEELKAEE | 0.0997
HMSDTFTITTESGRIDKIITAHETTHTRSQVQKWLQDGLVTVNGNPVKANFKVTAGDVVTVTIPEVK | -0.0373

Sequence | soluble fraction (log2)
HMEEKWKENYEKIKLFISINNRYPSVYSEDKEEGLIGSFMSNQKRRKNKLSKEKMALFEALPNWIWE | -0.812
HMSQPALSYAFAKAQGVIVTALGDVAEVARRKGSQPQALAEVRRIAGRPLALREVDDAAFDRLLQDHYARS | -0.0203
HMKKIYEEVSEAILTMIKNGTLKPGDKLLPVHQLAEQFQVGRSAVREALSALRAMGLIEMKQGEGTYVKNF | -0.6
HMNNDSQYLATLQRYYAEHRVLPSYARMLPLLGFASKAAVKKVLERLEVVGMLERTEDGDWAPSERFFER | 0.0419
HMAEAETVKFVGNSLLLVSGAAKGERLSVYTVGGQHVLSADATKPVDVAALHSGVYVVRTTNGVITKIVK | 0.0831
HMTEDNDLETIAYDILKERNLNNININVKNGVLNIYGKTETLKEKREIEKILSSLNVSKINNLIKI | ≥ 0.43
HMSKTKDVLVQLMAERGLTQSDIARALSVRPQAVQQWVSGKTRPTGKNLEALAEFLQLPPAVIVHGP | 0.344
HMFMLQAKRVPVSELENFKGIVAEDVVSQSRALILPRGSNLSWLSSSAMQNLSTRLALEGVESISIYL | -1.8
HMKAQLQHIIGSNIKLARNTQGYTQEGLAERAEISVEHLKQVERGKKMLSVESLVNVANALQVSVDSLV | -0.205
HMGDHYTALGLSIDATPEEIRSAYFLAARRSHPDANPDAQTTEWFLRVQEAYDILSNPRRRAEYDASLP | -1.46
HMSHANAALTPRARLRLAKLIVEEHWPVATAAKMFMVSPPTARKWATRFRAEGPAGMADRSSRP | 0.123
HMKPSKYTLAIDSIPVHVTRKQMKSIRLRVTPLGEVRVSAPYGVKDSEIVEMVRSRKLWIESQQRA | -0.0235
HMTLSDDEFEIIKSLIIDTLKEEALTINALTKKINHKEAKTIQVIRFLLDNGLVAENNLMKLFVI | -1.54
HMIGMDMQELIGRYKGDPDEMGKIELAAMSMLKLSEDMSSDHVLQKSKLRQDGLWLLKYVQE | -1.03
HMLLRSEDAIELGKSQLEDALAPYKIETLDTGTVQQLLDSLKLNSLESLYQEIGLGNRMSTIIAHRLLGE | -0.88
HMSSWEVLAEPIQTVMRRYGVPGAYEKLKEVTRGKSLTAEALHALIRSLDIPQADKERLLALTPAAWA | -0.393
HMHNLYAPTQKEVDHARRVVEAAEAAAREGLGVVSLNGKMVDGPVIDRARLVLSRAELSGIRE | 0.274
HMGGSDIYLGAFNIPQGSVRVTSGGQALTEGKDFTIDYNLGSVKIINQAILNSGIPVSVSYENNAG | -0.294
HMRTVPEALLGRAYETAETAIVLEGLEAKRTDVFHPTIGNGTVIRLEPASGSQVSAGGVIEIFVSKGTETI | -1.31
HMDAKIEYTMSDLIENRLINSDDASMRREKLSEILKIGYGNGKKTLHKLNSFGITREEFEEAMKEVNSH | -0.0624
HMIGIRLKELVLKNQSAWVGLRVSELDISRKTMIVMIRRGDKMLIPNGSTILRSGDVLLLYTR | -0.354
HMAAINPSALREPATPPEQLSAGDSVLHPRFGRGEILELQQQGGDPRAIVQFINEPKPRTLVLRYAQLRK | 0.0977
HMNVNTNTILKSLMETYPDSTVFKKAEIVSIANSLGFKKSDYSPLTSTDNRTDVRGQYDLSAVIIPMRESN | -0.11
HMGVARGQAQVTTRQHVVQPGETLYQISKQYGVTVAEILRYNADIEDNTVKVGQTLQIPTPLP | -0.206
HMVSRQINVIPDDLAGLRLDQALAHLFPQHSRSRLKEWLLEDIIIVQGGPKRPKDIVSGGEIVEIKL | -1.2
HMLHEFSGVVVSILADTGPSTLKQLHRSLISSDVKMDEKELMQILDEALSSGSVTSHRKGRYLYYSANK | -0.399

Sequence | soluble fraction (log2)
HMSKTQVKSVLDDIKGIGVVRRKALIKHFNDIEAIKAAQLAELKAVAGMDSKSAQSVYDFFHK | ≥ 0.43
HMSINTLEVHSLKALENLAESPLLISFSYENEEYNYRLASSDVSLLKKISSNYSDDSDIKGLRFIS | -0.316
HMTKVKIDRLFSIVQMLVNRKSVTAKELADYFNVSVRTIYRDIEILSANGIPIYATQGKGGGISILEN | -0.663
HMEELNFYPNPAYKYINLDYVGLKEIYTVLGKKLLETYDTRINISNLNSGIYLIKFKNQALRFVK | -0.32
HMGEGRVRLAQEAANRFMTAMAGDRPGFEEAGRALFAGDRARFHAETEGWPEDIRDHARRLAEPALQ | -0.0593
HMDDSVTFSEFVRMVDSGQVESVRITGNEVTGSDSTGNTFRTFVPPQYEGLVNRLVERDVAVTAEE | -0.284
HMPKSVRQSFVYSPMYRDVEYLADFLRNNNKDDSSVSASGDKLVYYGTADEIARVKSVLKGVDV | -0.51
HMEAAIRNALSRVENPDETQRARIYRTAHDALIRNLENRGITDPEQVRPQVSRLKDLISVIEREYHG | -0.0565
HMQPVEHLPTTDPLTTSAASEHERYEKVRWWLEEMQRTYETGDEVRAERIRLSLIEQMYKWEGE | -1.09
HMAKRINVKLIMELSAGGLTQNEIASSRHFSKTSVNLVLKTARELNVSAADLREMSPEEAYRLFFPEK | -0.0837
HMITIDNYFNKEKELDFSSFPEALRKGHGFVSKATAHGSSWVSYHSSDAIKKTIDIYLSKLNEYLSNNAKA | 0.0989
HMDNMFVEERQALIYEELQSNGRVRVKDLSKKFNVSEDLIRKDLNVLEKEGKLRKIYGGAVLAK | 0.071
HMVGIVQKTFEPTGIAAEELMKTLKSDKSLDFGNVQILATPKSSTSRQVVVVSGRANDVDRVMMVLSNLDS | 0.015
HMQTGRREALEAQLRETGGEAMLARLREIDPEAAARLHPADEKRVIRALEVYEETGKTITQHNLETKAVPP | -0.0698
HMRSWRDQRVDDLLAAVSELGMTMSRAAAGDLLDQRVEYVANQMRVTPATARKYLTEETLAGMAREIVFG | -0.83
HMYLYHDLSDEAKAMGDEYVSVEHLVLALIRYPNNAVKELFREFGITRERFLQVLSTIRGNQRVTSDNPEA | -0.194
HMQKAEQIGSLLREKRKSMGLTQDELAQQVEVRRQTLADLELGKNVGSHLLIKVMEHLGVGFDLL | -0.962
HMGEPVEIEEPITVRSLSEALGLKSSAIISHLMRQGVFATINQNLDKETAELIAAEYGIELRIK | -0.0783
HMPRFDINFKVGEVVTIKGGSFDGQQGEISEIDHEHGKIKVMLEVLGRLTPVEVEHTEIEKI | -0.623
HMAAVSSHAVKQRIRSLIQAEDPASPLSDEALRLALSALGVEVSRRAVAKYRTSMDIPASSQRKK | 0.238
HMDGVLVYKEGMTVADMATGLGKTIAQVVMKLMQLGIMANQNQSVDRETVELVALDFGYELKD | -1.39
HMSWRWVPVSGAYTTSALEAAGLTRAFDDQAAAEEWLGLFFDDLLREGVGEVSLYEEDRLVYGPMSL | -2.33
HMTVRLSVSADGKFFWNESQVSEEELFPRLQAEAAKEPQPDLHIRGDKNVRYEFVAQAMAAAQRAGVRKI | -0.423
HMVAGHLSEKKGYYYAVLNYKDYTGKRKSKWVSTGLPVKGNKRRAEKILADIKRDFVPEEPKR | -0.0527
